According to US20230002728A1, “STEM CELL FATE ENGINEERING METHODS” (Wisconsin Alumni Research Foundation, priority 2021, published 2023):

What was measured:
Format in all cases: cell-based, human
[1] = tested on: H9 hESC-derived cardiac progenitor cells (CPCs); assay: Localized EpiC differentiation of hPSC-derived cardiac progenitors on morphogen droplets (WT1 immunostaining); details: droplets on TC-coated PS plate, 7d after cardiac progenitor seeding
Method: For localized EpiC differentiation, BMP4 (2 ng/μl)+Wnt3a (40 ng/μl) solution was placed in PDMS stencil masks either on a TC-treated plate or an ibidi 35 mm polymer dish. Matrigel® coating was performed as described above. Cryopreserved CPCs were thawed and seeded at 500,000-550,000 cells/cm^2 in LaSR medium (advanced DMEM/F12 (Gibco, 12634-010) supplemented with 60 μg/ml ascorbic acid (Sigma, A8960) and 2.5 mM Glutamax (Gibco, 35050-061)) supplemented with 5 μM Y-27632). Medium was changed daily with fresh LaSR medium until analysis. Time lapse imaging of CPCs derived from H9-hTNNT2-GFP hESC during localized EpiC differentiation was performed using a fluorescence microscope equipped with a heating stage top incubator. 18 days after CPC seeding, cells cultured on an ibidi polymer dish were immunostained and imaged using a confocal microscope (Nikon, A1R-SI+) for the analysis of sarcomere structure.
Spatial organization of cell fate commitment is important throughout development. […] These cardiac progenitors can further differentiate into CMs without any specific external signaling factors and can also differentiate into EpiCs upon activation of canonical Wnt signaling (Bao et al. (2016) Nature biomed. Eng. 1, 1-12).

[2] = tested on: H9 hESCs; assay: Localized cardiomyocyte differentiation on BMP4 patterns (cTnT immunostaining, day 8); details: 2.5 ng/μl BMP4 pattern, 5 μM IWP2 at day 3, day 8
Method: For localized cardiomyocyte (CM) differentiation, 2.5 ng/μl BMP4 solution was placed in PDMS stencil masks on a TC-treated plate. Matrigel® coating and hPSC seeding was performed as described above. At day 1 and day 2, medium was changed with fresh RPMI B27−. Afterwards, CM differentiation was performed based on the GiWi protocol (Lian et al. (2013) Nature protocols 8, 162-175). At day 3, cells were treated with 5 μM IWP2 in fresh RPMI B27−. At day 5, medium was changed with fresh RPMI B27−. At day 7, medium was changed with fresh RPMI B27+. At day 8, a beating phenotype of patterned CM derived from H9-hTNNT2-GFP hESC was recorded using a fluorescence microscope (Nikon, Eclipse Ti2-E) equipped with a heating stage top incubator (Tokai Hit, Tokai Hit STX Series Stage Top Incubator System). Cells were also immunostained for analysis at day 8.
Based on the results showing localized mesoderm differentiation on BMP-patterned substrates, mesodermal cells were examined to see if they could be further differentiated on these patterns into cardiomyocytes, a specialized mesodermal cell type. BMP4 patterns were used to direct mesoderm and Wnt inhibition by addition of IWP2 to the culture medium at day 3 to specify cardiac mesoderm and achieve patterned CM differentiation (FIG. 4A). The H9-hTNNT2-GFP hESC reporter line was used to visualize patterning of CMs in live cells. […]

[3] = tested on: H9 hESCs; assay: Localized mesendoderm differentiation of hPSCs on adsorbed BMP4 patterns (BRACHYURY immunostaining, day 2); details: for mesendoderm differentiation (BRA expression): two days in mTeSR1
Method: […] For glass surfaces, 1.5 ng/μl BMP4 solution was used. 5 ng/μl noggin solution was placed as a droplet to show an inhibitory effect of noggin on BMP4-induced mesendoderm differentiation. After washing, substrate was coated with Matrigel® for 2 hours as described above. Glass was coated with Matrigel® overnight. 0.025 mg/ml Synthemax (Corning, 3535) (final concentration, diluted in water) was added to a washed TC-treated plate and the plate was incubated for 2 hours at room temperature prior to cell seeding. 5 μg/ml truncated recombinant human vitronectin (Gibco, A14700) diluted in PBS was added to a washed TC-treated plate and the plate was incubated for 1 hour at room temperature prior to cell seeding. After ECM coating, the ECM solution was aspirated and hPSCs were singularized using Accutase (10 min incubation at 37° C.), resuspended in mTeSR1 supplemented with 5 μM Y-27632, and seeded at 5×10^5 to about 1×10^6 cells/cm^2 on coated substrates (day 0). On the next day (day 1), medium was changed with fresh mTeSR1. […]
For immunostaining of other protein markers, cells were fixed in 4% paraformaldehyde (Electron Microscopy Sciences, 15710-S) in PBS for 15 min at room temperature, washed with PBS three times, and incubated in diluted primary antibodies in 5% nonfat dry milk (Santa Cruz Biotechnology, sc-2324)/0.4% Triton X-100 (Fisher Scientific, BP151-500) PBS overnight at 4° C. […] After secondary antibody staining, the cells were washed with PBS three times, incubated in 2 μg/ml Hoechst 33342 diluted in PBS for 5 min at room temperature, washed with PBS two times, and analyzed under the fluorescence microscope. […]
Next, BMP4 solution was placed on TC-treated plates in various patterns (droplet, letters, circle, heart, and star), and hPSCs seeded onto the substrate in mTeSR1 maintenance medium. […] Since the presence of inhibitory morphogens is also important in developmental patterning, a BMP inhibitor, noggin, was evaluated for antagonism to localized BMP4-induced mesendoderm differentiation. […]

B1: BMP4: human recombinant BMP4 (Invitrogen, PHC9534), morphogen adsorbed on the substrate (protein, UniProt P12644 293-408, looked up)
Bone morphogenetic protein 4: SPKHHSQRARKKNKNCRRHSLYVDFSDVGWNDWIVAPPGYQAFYCHGDCPFPLADHLNSTNHAIVQTLVNSVNSSIPKACCVPTELSAISMLYLDEYDKVVLKNYQEMVVEGCGCR
With B1 the “EpiC differentiation (WT1 expression)” value [1] was “limited if any EpiC differentiation”, the “cardiomyocyte differentiation (cTnT)” value [2] was “localization of CMs to the patterned area” and the “mesendoderm differentiation (BRA expression)” value ([3]; BMP4 droplets adsorbed on TC-treated PS, Matrigel coating) was “induced localized mesendoderm differentiation”. The “mesendoderm differentiation (BRA expression)” value ([3]; BMP4 droplets adsorbed on untreated PS surface) was “none of the BMP4 droplets induced mesendoderm differentiation” and the “cell attachment on the patterned area” value ([3]; untreated PS surface, 0.1, 0.2, and 2.5 ng/ul BMP4 droplets) was “partially or fully inhibited cell attachment”.
